Drawing on patent publication US20150309037A1, this text covers proliferation, GDNF concentration of maximum stimulation for 1 substance.

Assay [1] deals with GDNF family receptor alpha 1 (GFRA1) (UniProt P56159). The experiment in a line: cell-based or functional assay.
Assay [2] addresses trans-membrane receptor kinase RET (UniProt P07949). Kind of assay: cell-based or functional assay.

trans-membrane receptor kinase RET, sequence (P07949 29-1114 limits assumed): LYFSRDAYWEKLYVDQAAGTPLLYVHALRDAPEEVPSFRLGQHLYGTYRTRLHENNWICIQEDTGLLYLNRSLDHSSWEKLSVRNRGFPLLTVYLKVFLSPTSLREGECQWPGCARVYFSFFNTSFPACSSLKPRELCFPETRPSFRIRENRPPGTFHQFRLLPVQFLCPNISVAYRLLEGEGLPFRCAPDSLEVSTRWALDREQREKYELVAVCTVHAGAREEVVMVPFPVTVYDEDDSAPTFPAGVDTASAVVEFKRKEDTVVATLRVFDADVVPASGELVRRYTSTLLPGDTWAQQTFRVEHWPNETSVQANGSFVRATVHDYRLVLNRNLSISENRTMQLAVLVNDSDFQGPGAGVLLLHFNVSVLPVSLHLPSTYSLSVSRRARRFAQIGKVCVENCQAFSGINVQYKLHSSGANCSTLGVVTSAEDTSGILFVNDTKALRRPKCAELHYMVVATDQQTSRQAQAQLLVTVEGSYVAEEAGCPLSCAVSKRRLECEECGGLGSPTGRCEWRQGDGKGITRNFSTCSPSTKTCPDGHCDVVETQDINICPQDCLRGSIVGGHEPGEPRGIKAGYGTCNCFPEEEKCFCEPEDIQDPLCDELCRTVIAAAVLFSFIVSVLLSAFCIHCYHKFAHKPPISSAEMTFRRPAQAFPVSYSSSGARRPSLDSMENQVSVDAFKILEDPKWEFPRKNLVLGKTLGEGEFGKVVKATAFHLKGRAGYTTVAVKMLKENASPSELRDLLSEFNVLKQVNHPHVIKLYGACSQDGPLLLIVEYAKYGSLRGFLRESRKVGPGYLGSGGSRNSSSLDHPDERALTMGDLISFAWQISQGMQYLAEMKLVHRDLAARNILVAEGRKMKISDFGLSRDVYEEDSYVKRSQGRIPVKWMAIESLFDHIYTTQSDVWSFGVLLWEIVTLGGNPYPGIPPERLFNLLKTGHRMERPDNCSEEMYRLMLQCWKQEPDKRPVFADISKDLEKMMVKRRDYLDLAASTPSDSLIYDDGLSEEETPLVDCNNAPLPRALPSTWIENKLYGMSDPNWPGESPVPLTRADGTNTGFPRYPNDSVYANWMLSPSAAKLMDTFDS
GDNF family receptor alpha 1 (GFRA1), sequence (P56159 25-429 limits assumed): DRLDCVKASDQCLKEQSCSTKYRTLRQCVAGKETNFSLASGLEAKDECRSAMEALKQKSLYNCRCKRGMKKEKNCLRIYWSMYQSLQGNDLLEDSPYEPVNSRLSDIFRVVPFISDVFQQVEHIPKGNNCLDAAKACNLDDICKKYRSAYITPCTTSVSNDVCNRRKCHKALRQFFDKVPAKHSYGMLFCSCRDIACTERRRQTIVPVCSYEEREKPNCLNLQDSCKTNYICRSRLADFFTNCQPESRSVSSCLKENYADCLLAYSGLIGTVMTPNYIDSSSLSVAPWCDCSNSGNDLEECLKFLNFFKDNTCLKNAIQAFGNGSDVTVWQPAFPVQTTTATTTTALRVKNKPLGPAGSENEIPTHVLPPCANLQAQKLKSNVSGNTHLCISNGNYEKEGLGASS

For the substance “glial cell line-derived neurotrophic factor (GDNF) (from UniProt P39905 78-211) (ligand)”, the proliferation, GDNF concentration of maximum stimulation in assay [1] and in assay [2] was 10 ng/mL each time.
